From patent US12097252B2, “Formulation of a peptide vaccine” (priority 2016, dated 2024)
Bridge positions count the residues as written; N and C are the ends. Ends that are not written are not given here.

Test: In-use chemical stability of vaccine emulsions by UPLC/MS after extraction of peptides
Format: physicochemical
Conditions: for Related substances (≥0.05%) [Area %]: peak in reconstituted PRAME-DP-5P; for Peptides and related substances (≥0.05%) [Area %]: peak in reconstituted P53-DP-5P
Procedure: For samples showing complete dissolution, an emulsion stability of >2 hours, and a chemical stability of the Drug Product solutions (without additional dilution) of >2 hours, the in-use chemical stability of the vaccine emulsions with Montanide ISA 51 VG was monitored with UPLC/MS. For analysis of chemical stability of the reconstituted and emulsified Drug Products, samples were analyzed at various time points, at least up to 2 hours after dissolution. UPLC/MS analysis was performed according to the method describe above for chemical stability of the Drug Product solution, using an extra sample preparation step for extraction of the peptides from the vaccine emulsion. For sample preparation of emulsified products, the following steps were applied: • Take 300 μL Reconstitution Solution and add this to a 15 mL Greiner tube • Add 100 μL heptane • Add 200 μL of the Drug Product emulsion. Pipet the solution up and down three times. • Vortex the mixture for 30 seconds • Centrifuge the mixture for 5 minutes at 4400 rpm to obtain a two-phase system • With a 20-200 μL pipette, take a 100 μL sample from the bottom layer and transfer to a total recovery UPLC vial. • Analyze with UPLC/UV/MS according to the method described for chemical stability of the Drug Product solutions. Results Solvent Screening for Reconstitution and Emulsification
Analysis of chemical stability was performed by UPLC-MS as described in Example 1, at the section describing methods for analysis of in-use chemical stability of HPV-DP-6P and HPV-DP-7P vaccine emulsions including extraction of the peptides from the vaccine emulsion.
Purity of the Drug Product at different time points was calculated as follows: Purity (%)=100%−Sum of impurities≥0.05% area

Substance | Related substances (≥0.05%) [Area %] (in-use storage t = 0 h) | Related substances (≥0.05%) [Area %] (in-use storage t = 1 h) | Related substances (≥0.05%) [Area %] (in-use storage t = 2 h) | Related substances (≥0.05%) [Area %] (in-use storage t = 3 h) | Peptides and related substances (≥0.05%) [Area %] (in-use storage t = 0 h) | Peptides and related substances (≥0.05%) [Area %] (in-use storage t = 1 h) | Peptides and related substances (≥0.05%) [Area %] (in-use storage t = 2 h) | Peptides and related substances (≥0.05%) [Area %] (in-use storage t = 3 h)
SEQ ID NO 166: PRAME-derived peptide, component of PRAME DP-5P (SYEDIHGTLHLERLAYLHARLRELLCELGRPSMV) | 13.49 | 14.15 | 13.81 | 13.59 |  |  |  | 
SEQ ID NO 156: PRAME-derived peptide, component of PRAME DP-5P (IPVEVLVDLFLKEGACDELFSYLIEKVKRKKNVLR) | 10.56 | 10.52 | 10.17 | 9.98 |  |  |  | 
SEQ ID NO 153: PRAME-derived peptide, component of PRAME DP-5P (LETFKAVLDGLDVLLAQEVRPRRWKLQVLDLRK) | 21.89 | 22.70 | 22.51 | 22.59 |  |  |  | 
SEQ ID NO 193: P53-derived synthetic long peptide, component of P53 DP-5P (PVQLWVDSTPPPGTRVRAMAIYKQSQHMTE) |  |  |  |  | 23.90 Area % | 22.38 | 22.31 | 22.19
SEQ ID NO 191: P53-derived synthetic long peptide, component of P53 DP-5P (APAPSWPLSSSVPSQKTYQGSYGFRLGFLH) |  |  |  |  | 30.37 Area % | 28.75 | 28.81 | 28.81
SEQ ID NO 160: PRAME-derived peptide, component of PRAME DP-5P (LRRLLLSHIHASSYISPEKEEQYIAQFTSQFLS) | 13.61 | 13.49 | 13.34 | 13.40 |  |  |  | 
SEQ ID NO 203: P53-derived synthetic long peptide, component of P53 DP-5P (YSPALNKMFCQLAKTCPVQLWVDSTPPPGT) |  |  |  |  | 13.73 Area % | 16.73 | 16.21 | 15.56
SEQ ID NO 201: P53-derived synthetic long peptide, component of P53 DP-5P (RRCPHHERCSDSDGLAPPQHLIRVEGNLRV) |  |  |  |  | 12.43 Area % | 11.73 | 11.72 | 11.60
SEQ ID NO 203 intramolecular disulfide: related substance: intramolecular disulfide of the peptide set forth in SEQ ID NO: 203 (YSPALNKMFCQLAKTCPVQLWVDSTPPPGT; disulfide 10-16 (inferred)) |  |  |  |  | < | 1.05 | 1.54 | 1.87
